Consider 125 sequences from the supplement of paper PMC9112550, “Optimization of the antimicrobial peptide Bac7 by deep mutational scanning” (BMC Biology, 2022).
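Also: peptides expressed intracellularly from a pBAD plasmid library in pooled LB shake-flask culture, induced with 0.3% L-arabinose, DNA abundance read by NGS, three biological replicates, DESeq2 with apeglm shrinkage.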

For this data set, the system named is Escherichia coli TOP10. The experiment in a line: shrunken log2 fold change of peptide-encoding DNA abundance (4.5 h post-induction vs induction); higher = less antimicrobial activity (less host growth inhibition). As to conditions: time post-induction: 4.5 h; library: site-saturation at positions 5, 18, 19, 20.
For RRIRSRPPRLPRPRPRPDTEPRP, the “shrunken log2 fold change” value was -0.0911.

With RRIRNRPPRLPRPRPRPKYNPRP, the “shrunken log2 fold change” value was -0.901.

Consider RRIRNRPPRLPRPRPRPMHFPRP, for which the “shrunken log2 fold change” value is -0.145.

As to RRIRHRPPRLPRPRPRPDFRPRP, the “shrunken log2 fold change” value is -0.0827.

Turning to RRIRDRPPRLPRPRPRPHNIPRP, the “shrunken log2 fold change” value was -0.53.

For the sequence RRIRKRPPRLPRPRPRPSFRPRP, the “shrunken log2 fold change” value is -0.294.

Regarding RRIRVRPPRLPRPRPRPCANPRP, the “shrunken log2 fold change” value is -0.129.

For the sequence RRIRWRPPRLPRPRPRPYGIPRP, the “shrunken log2 fold change” value was -0.00133.

With RRIRERPPRLPRPRPRPNCIPRP, the “shrunken log2 fold change” value is -0.712.

On to RRIRPRPPRLPRPRPRPNEMPRP, for which the “shrunken log2 fold change” value was 0.0125.

With RRIRCRPPRLPRPRPRPFTRPRP, the “shrunken log2 fold change” value was -0.291.

For RRIRKRPPRLPRPRPRPFGCPRP, the “shrunken log2 fold change” value came to 0.0495.

With RRIRGRPPRLPRPRPRPIDHPRP, the “shrunken log2 fold change” value was determined as 0.115.

As to RRIRCRPPRLPRPRPRPELNPRP, the “shrunken log2 fold change” value was -0.137.

For RRIRGRPPRLPRPRPRPWTMPRP, the “shrunken log2 fold change” value came to 0.033.

In the case of RRIRLRPPRLPRPRPRPFIPPRP, the “shrunken log2 fold change” value was -0.355.

Consider RRIRRRPPRLPRPRPRPNIHPRP, for which the “shrunken log2 fold change” value is 0.564.

As to RRIRSRPPRLPRPRPRPWPAPRP, the “shrunken log2 fold change” value is 0.199.

As to RRIRTRPPRLPRPRPRPNAGPRP, the “shrunken log2 fold change” value turned out to be 0.0361.

As for RRIRWRPPRLPRPRPRPGWWPRP, the “shrunken log2 fold change” value was found to be 0.336.

Consider RRIRFRPPRLPRPRPRPQEEPRP, for which the “shrunken log2 fold change” value was -0.0228.

As to RRIRPRPPRLPRPRPRPCPIPRP, the “shrunken log2 fold change” value stood at 0.082.

Consider RRIRRRPPRLPRPRPRPIMSPRP, for which the “shrunken log2 fold change” value was -0.0839.

As for RRIRQRPPRLPRPRPRPGCPPRP, the “shrunken log2 fold change” value is 0.414.

Take RRIRSRPPRLPRPRPRPWTMPRP: the “shrunken log2 fold change” value is 0.0795.

In the case of RRIRNRPPRLPRPRPRPDAEPRP, the “shrunken log2 fold change” value was determined as 0.45.

Consider RRIRGRPPRLPRPRPRPILYPRP, for which the “shrunken log2 fold change” value was 0.0934.

With RRIRFRPPRLPRPRPRPLYNPRP, the “shrunken log2 fold change” value is -0.644.

As for RRIRQRPPRLPRPRPRPWAPPRP, the “shrunken log2 fold change” value was 0.0985.

As for RRIRYRPPRLPRPRPRPFQSPRP, the “shrunken log2 fold change” value is -0.0418.

RRIRERPPRLPRPRPRPYVAPRP: the “shrunken log2 fold change” value was -0.72.

Take RRIRERPPRLPRPRPRPNVAPRP: the “shrunken log2 fold change” value was -0.186.

With RRIRDRPPRLPRPRPRPASYPRP, the “shrunken log2 fold change” value is -0.0767.

RRIRERPPRLPRPRPRPKVKPRP: the “shrunken log2 fold change” value was 0.0263.

As to RRIRLRPPRLPRPRPRPCHAPRP, the “shrunken log2 fold change” value is -0.235.

As to RRIRFRPPRLPRPRPRPKIPPRP, the “shrunken log2 fold change” value is -0.428.

Turning to RRIRWRPPRLPRPRPRPLKRPRP, the “shrunken log2 fold change” value was found to be 0.612.

As to RRIRSRPPRLPRPRPRPDHAPRP, the “shrunken log2 fold change” value was determined as 0.0838.

Take RRIRIRPPRLPRPRPRPDVIPRP: the “shrunken log2 fold change” value is -0.00836.

On to RRIRSRPPRLPRPRPRPHYDPRP, for which the “shrunken log2 fold change” value was -0.735.

As for RRIRHRPPRLPRPRPRPCHYPRP, the “shrunken log2 fold change” value was -0.4.

For RRIRDRPPRLPRPRPRPDIHPRP, the “shrunken log2 fold change” value is -0.0156.

For RRIRFRPPRLPRPRPRPIQWPRP, the “shrunken log2 fold change” value came to 0.0986.

For the sequence RRIRYRPPRLPRPRPRPTAGPRP, the “shrunken log2 fold change” value was found to be 0.111.

For RRIRCRPPRLPRPRPRPYCNPRP, the “shrunken log2 fold change” value was -1.19.

Turning to RRIRSRPPRLPRPRPRPQHVPRP, the “shrunken log2 fold change” value was -0.17.

For RRIRRRPPRLPRPRPRPERVPRP, the “shrunken log2 fold change” value was found to be 0.125.

Consider RRIRPRPPRLPRPRPRPPQRPRP, for which the “shrunken log2 fold change” value amounted to 0.43.

On to RRIRGRPPRLPRPRPRPKQGPRP, for which the “shrunken log2 fold change” value was 0.524.

As for RRIRVRPPRLPRPRPRPICQPRP, the “shrunken log2 fold change” value is -0.188.

RRIRPRPPRLPRPRPRPKPAPRP: the “shrunken log2 fold change” value is 0.157.

In the case of RRIRRRPPRLPRPRPRPIPIPRP, the “shrunken log2 fold change” value was -0.0501.

On to RRIRQRPPRLPRPRPRPMLSPRP, for which the “shrunken log2 fold change” value was -0.0514.

For the sequence RRIRFRPPRLPRPRPRPEMLPRP, the “shrunken log2 fold change” value came to 0.0583.

With RRIRIRPPRLPRPRPRPQLKPRP, the “shrunken log2 fold change” value was -0.456.

As to RRIRARPPRLPRPRPRPDLLPRP, the “shrunken log2 fold change” value was found to be 0.0805.

With RRIRFRPPRLPRPRPRPMIYPRP, the “shrunken log2 fold change” value is -0.441.

RRIRWRPPRLPRPRPRPNTDPRP: the “shrunken log2 fold change” value is -0.262.

Turning to RRIRTRPPRLPRPRPRPHPQPRP, the “shrunken log2 fold change” value was -0.116.

For the sequence RRIRWRPPRLPRPRPRPYHAPRP, the “shrunken log2 fold change” value is -0.295.

As to RRIRGRPPRLPRPRPRPYRPPRP, the “shrunken log2 fold change” value is -0.186.

Regarding RRIRTRPPRLPRPRPRPDKWPRP, the “shrunken log2 fold change” value turned out to be 0.0238.

For RRIRPRPPRLPRPRPRPMVPPRP, the “shrunken log2 fold change” value worked out at 0.18.

Turning to RRIRGRPPRLPRPRPRPSWAPRP, the “shrunken log2 fold change” value is 0.532.

For RRIRNRPPRLPRPRPRPHTEPRP, the “shrunken log2 fold change” value was 0.0434.

Take RRIRIRPPRLPRPRPRPMRGPRP: the “shrunken log2 fold change” value is 1.32.

On to RRIRCRPPRLPRPRPRPMWQPRP, for which the “shrunken log2 fold change” value worked out at 0.183.

For the sequence RRIRARPPRLPRPRPRPINDPRP, the “shrunken log2 fold change” value turned out to be 0.00287.

Consider RRIRPRPPRLPRPRPRPACCPRP, for which the “shrunken log2 fold change” value amounted to 0.405.

Turning to RRIRTRPPRLPRPRPRPHMSPRP, the “shrunken log2 fold change” value amounted to 0.0303.

Take RRIRCRPPRLPRPRPRPQDMPRP: the “shrunken log2 fold change” value worked out at 0.0633.

As for RRIRMRPPRLPRPRPRPKGTPRP, the “shrunken log2 fold change” value was found to be 1.69.

RRIRFRPPRLPRPRPRPYAFPRP: the “shrunken log2 fold change” value is -0.193.

RRIRGRPPRLPRPRPRPMGTPRP: the “shrunken log2 fold change” value was found to be 0.48.

On to RRIRARPPRLPRPRPRPYAQPRP, for which the “shrunken log2 fold change” value is -0.181.

In the case of RRIRLRPPRLPRPRPRPDTLPRP, the “shrunken log2 fold change” value was -0.15.

As to RRIRARPPRLPRPRPRPEMAPRP, the “shrunken log2 fold change” value was 0.739.

RRIRPRPPRLPRPRPRPCYPPRP: the “shrunken log2 fold change” value is -0.301.

In the case of RRIRMRPPRLPRPRPRPDGSPRP, the “shrunken log2 fold change” value was found to be 0.107.

On to RRIRTRPPRLPRPRPRPAPVPRP, for which the “shrunken log2 fold change” value stood at 0.0626.

RRIRLRPPRLPRPRPRPMQDPRP: the “shrunken log2 fold change” value was 0.0525.

Regarding RRIRERPPRLPRPRPRPDARPRP, the “shrunken log2 fold change” value is -0.0768.

In the case of RRIRHRPPRLPRPRPRPSMQPRP, the “shrunken log2 fold change” value was -0.124.

For RRIRTRPPRLPRPRPRPFWMPRP, the “shrunken log2 fold change” value was -0.111.

Take RRIRIRPPRLPRPRPRPWLGPRP: the “shrunken log2 fold change” value came out at 0.0945.

RRIRQRPPRLPRPRPRPVKWPRP: the “shrunken log2 fold change” value stood at 0.746.

For RRIRGRPPRLPRPRPRPRLHPRP, the “shrunken log2 fold change” value was found to be 0.653.

Take RRIRFRPPRLPRPRPRPGEQPRP: the “shrunken log2 fold change” value was -0.0185.

RRIRWRPPRLPRPRPRPDCCPRP: the “shrunken log2 fold change” value turned out to be 0.777.

For RRIRKRPPRLPRPRPRPTMAPRP, the “shrunken log2 fold change” value stood at 0.638.

RRIRLRPPRLPRPRPRPRWEPRP: the “shrunken log2 fold change” value stood at 0.0629.

As for RRIRWRPPRLPRPRPRPQWVPRP, the “shrunken log2 fold change” value worked out at 0.0902.

As for RRIRMRPPRLPRPRPRPGFSPRP, the “shrunken log2 fold change” value is 0.331.

Turning to RRIRQRPPRLPRPRPRPEFFPRP, the “shrunken log2 fold change” value worked out at 0.0969.

In the case of RRIRERPPRLPRPRPRPVNWPRP, the “shrunken log2 fold change” value was -0.0528.

For the sequence RRIRARPPRLPRPRPRPMIWPRP, the “shrunken log2 fold change” value was 0.415.

With RRIRTRPPRLPRPRPRPIHWPRP, the “shrunken log2 fold change” value stood at 0.0444.

As for RRIRWRPPRLPRPRPRPHSYPRP, the “shrunken log2 fold change” value is -0.0789.

As to RRIRPRPPRLPRPRPRPRMQPRP, the “shrunken log2 fold change” value turned out to be 1.48.

In the case of RRIRFRPPRLPRPRPRPEYKPRP, the “shrunken log2 fold change” value was -0.0678.

With RRIRKRPPRLPRPRPRPAQLPRP, the “shrunken log2 fold change” value is 0.0282.

For RRIRERPPRLPRPRPRPLRFPRP, the “shrunken log2 fold change” value was determined as 0.493.

As for RRIRSRPPRLPRPRPRPTQFPRP, the “shrunken log2 fold change” value is 0.212.

For the sequence RRIRERPPRLPRPRPRPTHIPRP, the “shrunken log2 fold change” value is -0.924.

In the case of RRIRPRPPRLPRPRPRPQAVPRP, the “shrunken log2 fold change” value amounted to 0.0933.

For the sequence RRIRCRPPRLPRPRPRPNHGPRP, the “shrunken log2 fold change” value is -0.746.

Regarding RRIRFRPPRLPRPRPRPWFKPRP, the “shrunken log2 fold change” value was -0.537.

With RRIRTRPPRLPRPRPRPNHAPRP, the “shrunken log2 fold change” value amounted to 0.176.

RRIRYRPPRLPRPRPRPYVKPRP: the “shrunken log2 fold change” value was -1.12.

For RRIRNRPPRLPRPRPRPMTIPRP, the “shrunken log2 fold change” value was -0.35.

Take RRIRWRPPRLPRPRPRPASVPRP: the “shrunken log2 fold change” value was found to be 0.00924.

With RRIRRRPPRLPRPRPRPTRQPRP, the “shrunken log2 fold change” value was 1.33.

On to RRIRSRPPRLPRPRPRPYYDPRP, for which the “shrunken log2 fold change” value is -0.214.

For the sequence RRIRQRPPRLPRPRPRPIYFPRP, the “shrunken log2 fold change” value was -0.115.

On to RRIRRRPPRLPRPRPRPKYYPRP, for which the “shrunken log2 fold change” value was -0.199.

For RRIRIRPPRLPRPRPRPQHFPRP, the “shrunken log2 fold change” value is -0.109.

RRIRARPPRLPRPRPRPRAMPRP: the “shrunken log2 fold change” value amounted to 0.808.

As to RRIRYRPPRLPRPRPRPWPAPRP, the “shrunken log2 fold change” value was 0.00297.

In the case of RRIRYRPPRLPRPRPRPNGQPRP, the “shrunken log2 fold change” value was -0.0885.

As to RRIRLRPPRLPRPRPRPIKMPRP, the “shrunken log2 fold change” value was -0.347.

On to RRIRGRPPRLPRPRPRPGGAPRP, for which the “shrunken log2 fold change” value stood at 1.

On to RRIRARPPRLPRPRPRPISYPRP, for which the “shrunken log2 fold change” value was -0.545.

For RRIRIRPPRLPRPRPRPESIPRP, the “shrunken log2 fold change” value is -0.12.

As to RRIRMRPPRLPRPRPRPKRNPRP, the “shrunken log2 fold change” value was 1.66.

Take RRIRMRPPRLPRPRPRPAAKPRP: the “shrunken log2 fold change” value came to 1.26.
